Reference: the supplement of paper PMC10567573
± gives the standard deviation.

Experiment: protein stability index of a GFP-peptide fusion (GPS, HEK-293T) (PSI 1-6); higher = more stable
[1] = treatment: DMSO, c terminus: a fixed tail appended
[2] = treatment: MLN4924 1 uM, 8 h, c terminus: a fixed tail appended
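Also: 24-mer peptide tiles fused after GFP, lentivirally expressed, FACS-sorted into six equal bins by GFP/DsRed ratio, decoded by Illumina sequencing, PSI is the read-weighted mean bin number.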

Sequence	protein stability index [1]	protein stability index [2]	protein stability index (treatment: DMSO, c terminus: native)	protein stability index (treatment: MLN4924 1 uM, 8 h, c terminus: native)
FLEQRPQSPTLEFLLRNSQRTVGQ [EDARADD]	3.15 ± 0.32	3.43 ± 0.34	–	–
FLLSVYAPGSSVEYQCQNLYQLEG [CFHR2]	2.75 ± 0.48	2.52 ± 0.44	–	–
FLPGGDMMTLLMKKDTLTEEETQF [STK38L]	2.89 ± 0.6	3.44 ± 0.51	–	–
FMLRYLYSQKESGHSNWLGDPEEP [ATL3]	2.75 ± 0.33	2.06 ± 0.48	–	–
FNGKGKKIRKPRTIYCSLQLQALN [DLX1]	2.38 ± 0.5	2.75 ± 0.31	–	–
FNIVYIYTSELYPTVIRNVGLGTC [SLC22A15]	3.07 ± 0.23	3.07 ± 0.62	–	–
FNMWGFGRVSKQASQPVKKQQENA [WDR41]	3.12 ± 0.25	3.54 ± 0.18	–	–
FNNGAHMSLLPDKKTVHYYAELGQ [PLK2]	2.92 ± 0.34	2.66 ± 0.25	–	–
FPGVVARPIGEFRSNADYQYQLLR [CNOT7]	3.05 ± 0.3	2.97 ± 0.2	–	–
FQGSQGRAYLFNSVVNVGCGPAEE [YPEL3]	2.57 ± 0.27	3.22 ± 0.1	–	–
FRLTTLLMSGCSSELKNRMEYALN [PLK2]	2.46 ± 0.53	2.35 ± 0.47	–	–
FRQRCLERMRNSRDRLLNRYRQAG [RPAIN]	3.15 ± 0.12	3.2 ± 0.15	–	–
FRVFHCTQYVRHSSDPFYTPEPDT [TPH1]	2.15 ± 0.19	2.27 ± 0.35	–	–
FRVNCYPGIDIREDLAQKLNLEED [HESX1]	3.52 ± 0.34	3.69 ± 0.35	–	–
FRVTLWVHPFVNYNSSRFGEGVER [MYORG]	2.77 ± 0.89	2.62 ± 0.41	–	–
FSGSLEPVACGSVLSEGSPLTEQE [SRPK2]	5.23 ± 0.17	5.46 ± 0.16	–	–
FSLKQEETLDYGKNYNYGMHYCAV [NEUROD6]	2.4 ± 0.18	2.07 ± 0.34	–	–
FSTQYRCFSVSMLAGPNDRSDVEK [UFD1]	2.68 ± 0.39	3.01 ± 0.57	–	–
FSVLMEKLCKKGLAATTSMAYAKL [FANCE]	3.19 ± 0.73	2.75 ± 0.56	–	–
FTKETTQKNFNNLYGTKGNYTSRV [TRIM29]	2.26 ± 0.42	2.61 ± 0.27	–	–
FVAGGISGTVAAVLTLPFDVVKTQ [SLC25A39]	2.95 ± 0.63	2.76 ± 0.84	–	–
FVKYLIRPQPWLEKEIEEATKKLG [FUT8]	2.31 ± 0.29	2.47 ± 0.17	–	–
FWSVMFFLMLINLGLGSMIGTMAG [SLC6A17]	3.2 ± 0.55	3.49 ± 0.57	–	–

Sequence	protein stability index [1]	protein stability index [2]	protein stability index (treatment: DMSO, c terminus: native)	protein stability index (treatment: MLN4924 1 uM, 8 h, c terminus: native)
FYFENLWSRNSKPVHTTILNPHIH [CAMK2A]	2.33 ± 0.51	2.5 ± 0.45	–	–
GASSCDGCKGFFRRSVRKNHMYSC [HNF4A]	2.36 ± 0.22	2.62 ± 0.26	–	–
GAVAPMDFTTAAEDQPINLCDKLP [NOL4L]	4.7 ± 0.1	4.77 ± 0.34	–	–
GAVFNGITLLILAELLIFSVPIVY [RTN3]	3.33 ± 0.037	2.9 ± 0.39	–	–
GCECEDGPDGQEMDPPNPEEVKTP [GAGE1]	5.48 ± 0.25	5.81 ± 0.14	–	–
GCIAAENCIGIRDFALHYCLHHVH [GAN]	2.72 ± 0.25	2.53 ± 0.33	–	–
GCKVPQEALLKLLAGLTRPDVRPP [SEPHS2]	2.28 ± 0.33	2.03 ± 0.29	–	–
GCTGDEAESRGHSKGWGRNYASII [MYCL]	3.1 ± 0.13	3.2 ± 0.17	–	–
GDSHYEIEIVHISTVQILTEGFPP [ZFYVE21]	2.71 ± 0.8	2.85 ± 0.78	–	–
GDVLHAHLDIWKSAAWMKERTSPG [SPDEF]	2.92 ± 0.48	3.06 ± 0.46	–	–
GEASYSTIAPTLIADLFVADQRSR [SPNS1]	3.21 ± 0.39	3.29 ± 0.6	–	–
GEKEVEALKKSADWVSDWSSRPEN [BNIP3L]	4.78 ± 0.27	4.88 ± 0.39	–	–
GELVLATAISSFTRHVFTCGRRGI [TLE6]	2.37 ± 0.31	2.52 ± 0.52	–	–
GEREPFAETDEHTGANTKKPEDTA [FAM9B]	5.46 ± 0.22	5.54 ± 0.52	–	–
GFTNKQLQSGQEYVFFVLAVMEHA [PTPRD]	2.95 ± 0.76	2.39 ± 0.79	–	–
GGEAAHHTRSPYSTFYPPYHSPEL [NEUROD6]	3.38 ± 0.2	3.58 ± 0.12	–	–
GGGSGSAPGPSRIADYLLLPLAER [TRIB1]	3.62 ± 0.48	–	–	–
GHEEMVALLLGQGANINAQTEETQ [ANKRD17]	4.81 ± 0.28	4.96 ± 0.19	–	–
GHNDWVMDVAISNNKKWILSASKD [WDR88]	3.19 ± 0.33	3.22 ± 0.59	–	–
GHNSPLYKRQEESGAAASLNVDAA [CHIT1]	5.19 ± 0.19	5.11 ± 0.22	–	–
GIQLLIVEYKDIASIHWDWKIALL [SLC35F2]	2.58 ± 0.61	2.69 ± 0.78	–	–
GKKYNWSCDDLMGGGGLHSVGTYI [GFOD1]	2.13 ± 0.35	2.33 ± 0.29	–	–
GKSILLFGGAAAVAILAVAIGVAL [BCL2L13]	2.98 ± 0.057	2.87 ± 0.3	–	–

Sequence	protein stability index [1]	protein stability index [2]	protein stability index (treatment: DMSO, c terminus: native)	protein stability index (treatment: MLN4924 1 uM, 8 h, c terminus: native)
GKVKLQQNPGKFDELDMSPGDPKW [TBC1D10A]	4.51 ± 0.32	4.83 ± 0.23	–	–
GLELALACDIRVAASSAKMGLVET [AUH]	2.37 ± 0.77	2.34 ± 0.18	–	–
GLHVQHMGTSHGITRPSPRRSNSP [CCDC6]	4.51 ± 0.17	4.57 ± 0.082	–	–
GLSAEDGVWAVIISHQQCWASTSP [TRIM15]	2.88 ± 0.51	2.39 ± 0.73	–	–
GLSPSIDTLDHIRALDRLQEVPHE [PPP2CA]	4.91 ± 0.22	4.87 ± 0.14	–	–
GMSTIRPNPGFSMLDFLSERPWIK [APMAP]	2.62 ± 0.34	2.76 ± 0.24	–	–
GNDTSPSEGTNLNAPNSLGVSALC [HNF4A]	4.65 ± 0.18	4.76 ± 0.15	–	–
GPAGPYLLSKKGALQSRAAQRHRG [PLEKHN1]	4.16 ± 0.48	3.98 ± 0.21	–	–
GPDVLETDGLQEVPLCSCRMETPK [EHMT1]	4.16 ± 0.43	4.29 ± 0.29	–	–
GPFDLMSRRVIAANNRILAERIAK [IMPA1]	2.54 ± 0.39	3.46 ± 0.59	–	–
GPHTISNQNNYRLLSCGKILTGCK [ACSBG2]	3.21 ± 0.13	2.84 ± 0.62	–	–
GPLGDQLHAQLRDLTSSSSDELSW [ELF3]	4.04 ± 0.047	4.18 ± 0.29	–	–
GPPVGPLSLGLATVDIQNPDITSS [WAS]	4.68 ± 0.23	4.39 ± 0.24	–	–
GPQLEGEKDWGLEGYVWRGSQLED [ZSWIM9]	4.52 ± 0.23	4.45 ± 0.28	–	–
GPWLEWEIMLQYCFPRLDINVSKG [PRIM1]	2.4 ± 0.19	2.88 ± 0.94	–	–
GREYPDAQGFAADVRLMFSNCYKY [BRD3]	2.38 ± 0.21	2.59 ± 0.29	–	–
GRIACANVLSDLYAMGITECDNML [SEPHS2]	2.4 ± 0.41	2.43 ± 0.32	–	–
GRQLEKVPEKRDSGMTEVERTYSA [SPATS1]	5.22 ± 0.3	5.24 ± 0.4	–	–
GRREGCDICAGKAGCPIVEEPLG [RPS21]	–	–	4.03 ± 0.13	4.33 ± 0.3
GRSNAPITAPTEVEVMDETNCQKV [CSNK1G3]	5.55 ± 0.15	5.59 ± 0.13	–	–
GRYAYVRGGGDPWTNGSGLALCQR [MCOLN1]	2.56 ± 0.37	3.02 ± 0.2	–	–
GSGAPSPLSKSSPATTVTSPNSTP [SNAP91]	5.44 ± 0.16	5.4 ± 0.16	–	–
GSGLSSRFEEPKGPPARQEDSKEL [CBY2]	5.35 ± 0.27	5.5 ± 0.25	–	–

Sequence	protein stability index [1]	protein stability index [2]	protein stability index (treatment: DMSO, c terminus: native)	protein stability index (treatment: MLN4924 1 uM, 8 h, c terminus: native)
GTDSAGPKTVPSHVFSELWDLSEA [ELOA2]	3.95 ± 0.25	4.39 ± 0.38	–	–
GTPMGTFAPLWEVFRVSSDKLALC [FCHO1]	2.23 ± 0.63	2.17 ± 0.41	–	–
GVIRMWADEGSRNSRFQMLFTSFQ [NETO1]	2.34 ± 0.4	2.27 ± 0.28	–	–
GVKFVGLFIILQVGLNTIADLWYL [POMT2]	3.52 ± 0.1	2.9 ± 1.2	–	–
GVSREEIEREVNILREIRHPNIIT [DAPK3]	2.38 ± 0.42	–	–	–
GYKEFFMKCQSYCEPPSYRPMHHE [CDC25A]	2.49 ± 0.15	2.42 ± 0.34	–	–
GYRVSAALEEADKMFLRTREPALD [EID1]	3.9 ± 0.27	3.89 ± 0.3	–	–
HDAQVRLYKEELEQTYHAKLENAR [LMNB1]	3.99 ± 0.34	4.13 ± 0.14	–	–
HDTKDQSPSRAPGLRQRASNKVQD [HMOX1]	5.58 ± 0.24	5.29 ± 0.14	–	–
HEPPFHLDREIRLQRLSHSGSRVR [SCNN1D]	4.27 ± 0.13	4.31 ± 0.21	–	–
HESSGNPPLRVIVKDALFCSCLSD [RHOBTB3]	3.11 ± 0.25	3.24 ± 0.12	–	–
HGAHKAEKKLFECLTCGKSFRQGM [ZNF263]	2.67 ± 0.27	2.78 ± 0.25	–	–
HHLDEDEERERIERVRRIHIKRPD [KCTD10]	5.09 ± 0.34	5.19 ± 0.076	–	–
HKHVVQFYHYFEDKENIYILLEYC [PLK2]	2.63 ± 0.43	2.37 ± 0.71	–	–
HKLDLNTREWTQLKPNNLSCDLPE [KLHDC10]	4.4 ± 0.12	4.41 ± 0.3	–	–
HLLGIPHSVLQIRYSGKILKNNET [IQUB]	2.77 ± 0.41	2.32 ± 0.38	–	–
HLNETVKAPDIECVLRCSVLEIEQ [FEM1B]	3.07 ± 0.49	3.13 ± 0.44	–	–
HLYLLRGLPGSGKTTLARQLQHDF [N4BP2L1]	2.35 ± 0.47	2.27 ± 0.29	–	–
HNSINQSLDESVIYGPGNLSTNNN [SLC2A12]	4.68 ± 0.34	4.7 ± 0.055	–	–
HNYNILIATLRVALPSVMRFCCCV [MCOLN1]	2.83 ± 0.59	2.9 ± 0.48	–	–
